Measured values published in US6693166 (HONG KONG UNIVERSITY OF SCIENCE AND TECHNOLOGY, dated 2004).

Target: T1, GST-Cdk5.GST-Nck5a complex (Homo sapiens (Human), UniProt Q00535 1-292; Q15078 99-307)
T1 construct: also called Cdk5/Nck5a complex; Cdk5.Nck5a complex
Test: steady state kinase kinetics with histone H1 peptide as substrate, Dixon plot; noncompetitive with respect to the substrate
Protocol: Peptide Inhibition of Cdk5 and Cdk2 Kinase Activity—Cdk5 kinase activity was assayed essentially as described previously, except that for each Cdk5 kinase reaction 1 µg of GST-Cdk5 was reconstituted with 2 µg of GST-Nck5a, and 1 µg of GST-Cdk2 was mixed with 3 µg of cyclin A-H6 in Cdk2 assays. The reconstituted complexes were added, in duplicate, to an assay mixture containing 30 mM MOPS, pH 7.4, 10 mM MgCl_2, 40 µM of the histone H1 peptide, 50 µM [γ-^32P]ATP, and various concentrations of various peptides at 30° C. for 30 min before measuring the Cdk5 and Cdk2 kinase activities.
Steady State Kinetic Experiments—All assay conditions were the same as in the inhibition assay described above, except that the reaction time was kept at 15 min so that the product formed was less than 5% of the total substrate concentration used. To determine suitable concentrations of the substrate and the inhibitor for the steady state kinetic experiments, the K_m value of GST-Cdk5.GST-Nck5a complex and a concentration-dependent inhibition profile of the enzyme by the α_N peptide were determined. […]
Kinetic Analysis of Cdk5 Inhibition by the α_N Peptide—We also analyzed the kinetic properties of the α_N peptide with respect to the kinase substrate, the histone H1 peptide.

B1: synthetic 28-residue Nck5a peptide corresponding to Ala146 to Asp173 of Nck5a (peptide)
peptide: ASTSELLRCLGEFLCRRCYRLKHLSPTD
notes: Chemically synthesised (Fmoc), purity above 95%; Gln145 of the recombinant 29-residue fragment was left out; also called αN peptide
- Ki: ~25 µM
